From patent US7511119B2, “PRAME peptide analogues” (MannKind Corporation, priority 2005, dated 2009)
Where two headings read alike, the source gives them in different places. Numbered stars: 1 amine (or outer) side, 2 acyl side, 3 side chain; on linkers, the order of the positions; unused ones are H or OH. Square brackets hold non-standard residues; d marks the D form. Ends that are not written are not given here. Tyr(Me) = O-methyl-Tyr, COc1ccc(C[C@H](N[*:1])C(=O)[*:2])cc1; Phe(4-NO2) = N[C@@H](Cc1ccc([N+](=O)[O-])cc1)C(=O)O; Bta = N[C@@H](Cc1csc2ccccc12)C(=O)O; Phg = N[C@H](C(=O)O)c1ccccc1; Nle = CCCC[C@H](N)C(=O)O; Orn = NCCC[C@H](N)C(=O)O

How the values were obtained:
[1] = tested on: target cells coated with wild-type peptide; test: In vivo cytotoxicity against wild-type NY-ESO-1 peptide-coated target cells; set-up: species or system HHD mice; settings: plasmid entrain, peptide amplify; FIGS. 15-16
Procedure: (§1) These cells were then stained with CFSE^hi and CFSE^med fluorescence (4.0 μM or 1 μM, respectively, for 15 minutes) and intravenously co-injected into immunized mice with an equal number of control splenocytes stained with CFSE^lo fluorescence (0.4 μM). Eighteen hours later the specific elimination of target cells was measured by removing the spleens and PBMC from challenged animals and measuring CFSE fluorescence by flow cytometry. The relative depletion of the populations corresponding to peptide loaded splenocytes was calculated relative to the control (unloaded) population and expressed as % specific lysis.

splenocytes = test: Ex vivo IFN-gamma production after re-stimulation with wild-type NY-ESO-1157-165 (ELISA); format: in vivo, mice; settings: 10 μM wild-type peptide, 3 and 6 days; FIG. 17
From the text: Supernatants were harvested and the concentration of IFN-γ measured by ELISA.

HLA-A*0201 = HLA-A*0201 (Homo sapiens, UniProt P04439, D140Y/D185E/D98H/E176V/E277Q/G131W/G231S/I119V/I121R/I166T/I218V/L300P/L318F/N151K/N90K/P208A/P217A/Q86G/Q94H/R138H/R169H/T345S); test: Peptide binding using T2 cells; settings: half maximal binding of wild-type peptide relative to analog;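 also: Read-out is peptide-induced stabilization of HLA-A*0201 on the cell surface, reflecting mainly Kon at limiting peptide levels and both Kon and Koff at saturating levels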
From the text: Thus, at limiting concentrations of peptide, it is a measurement of Kon mostly and at saturation levels of peptide it is a measurement of both Kon and Koff.
Thus, at limiting concentrations of peptide, this is a measurement of Kon mostly and at saturation levels of peptide that is a measurement of both Kon and Koff.

[2] = tested on: T cell lines against natural epitope SSX-241-49; test: Cross-reactivity and functional avidity: IFN-gamma production by T cell lines raised against natural SSX-2 41-49; format: cell-based, HHD transgenic mice; settings: T cells raised to native peptide tested on analogs; footnote * and unit not given;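 also: analogs presented ex vivo by competent APCs to T cells specific for the non-mutated epitope, scored by lowest activating concentration, peak cytokine effect and concentration at that peak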
624.38 melanoma cells = test: Ex vivo cytotoxicity against human tumor cells after boost with SSX-2 analogs; format: in vivo; settings: plasmid prime, peptide boost; FIG. 12
Procedure: Eight groups of mice (n=4) were immunized with plasmid expressing SSX-241-49 natural epitope by direct inoculation into the inguinal lymph nodes with 25 ug in 25 ul of PBS/each lymph node at day 0, 3, 14 and 17. This was followed by two additional peptide boosts (similar amount) at day 28 and 31, using a negative control peptide (Melan A 26-35 “EAA”), natural peptide or analogs as shown in FIG. 9.

[3] = tested on: target cells coated with natural peptide; test: In vivo cytotoxicity against splenocytes coated with natural SSX-2 41-49 peptide (CFSE); set-up: species or system HHD mice; settings: spleen and blood; targets coated with 20 μg/ml and 1 μg/ml natural peptide
Procedure: Eight groups of mice (n=4) were immunized with plasmid expressing SSX-241-49 natural epitope, by direct inoculation into the inguinal lymph nodes with 25 μg in 25 μl of PBS/each lymph node at day 0, 3, 14 and 17. This was followed by two additional peptide boosts (similar amount) at day 28 and 31, using a negative control peptide (Melan A 26-35 “EAA”), natural peptide or analogs as shown in FIG. 9.
as §1, with “To evaluate the in vivo response against natural peptide, splenocytes were isolated from littermate control HHD mice and incubated with 20 μg/mL or 1 μg/ml of natural peptide for 2 hours. These” for “These”, “CFSE^hi” for “CFSE^hi and CFSE^med”, “[…]” for “1 μM, respectively,”, “spleen” for “the spleens”, “lysis. FIG. 10 (spleen) and 11 (blood) show the in vivo cytotoxicity elicited by the regimens described in FIG. 7.” for “lysis.”

[4] = tested on: T cells specific for the wild-type NY-ESO-1157-165 epitope; test: Cross-reactivity and functional avidity of NY-ESO-1 157-165 analogs (IFN-gamma production ex vivo); format: cell-based, HHD transgenic mice; settings: relative to wild-type peptide; FIG. 13
[5] = tested on: native PSMA288-297 peptide; test: Cross-reactive immunogenicity of PSMA analogs, IFN-gamma ELISPOT; format: in vivo, HHD transgenic mice; settings: peptide plus pI:C intranodal; FIG. 22
Procedure: Groups of HHD transgenic mice (n=8) were immunized with peptide (natural epitope PSMA288-297, or analogs bearing substitutions at primary or secondary anchor residues) by direct inoculation into the inguinal lymph nodes, with 25 μg in 25 μl of PBS+12.5 μg of pI:C to each lymph node at day 0, 3, 14 and 17.
Mice were sacrificed at 10 days after the last boost, and splenocytes prepared and assessed for IFN-γ production by ELISPOT analysis. […] At 48 hours after incubation, the assay was developed and the frequency of cytokine-producing T cells that recognized native PSMA288-297 peptide was automatically counted. The data is represented in FIG. 22 as the number of spot forming colonies/well (mean of triplicates±SD). […] To the extent that the poor immunogenicity of the native epitope reflects tolerance, the improved activity of these analogs represents tolerance breaking.

HLA-A*0201 on T2 cells [6] = molecular target: T1, HLA-A*0201 on T2 cells (human); test: T2 cells, wild-type/analog half-maximal binding
T1 construct: whole, on cells; Class I MHC on the surface of T2 cells, detected with a fluorescent anti-A2 antibody; beta2-microglobulin is not mentioned for this assay; also called MHC class I (A2 allele)

HLA-A*0201 on T2 cells [7] = molecular target: T1, HLA-A*0201 on T2 cells; test: T2 cells, wild-type/analog half-maximal binding; remark: listed apart in the source
HLA-A*0201 on T2 cells [8] = molecular target: T1, HLA-A*0201 on T2 cells; test: T2 cells, wild-type/analog half-maximal binding; remark: listed apart in the source
[9] = molecular target: T2, HLA-A*0201 class I monomer of the iTopia Epitope Discovery System; test: iTopia affinity assay
T2 construct: also called A0201 restricted MHC Class 1 molecules; MHC monomer

L158V C165V: NY-ESO-1 157-165 analog with L158V and C165V substitutions (SVLMWITQV; UniProt P78358 157-165, looked up, variant L158V C165V)
in vivo cytotoxicity (% specific lysis), in words [1]: effect in the same range with wild-type peptide | IFN-gamma production upon ex vivo re-stimulation with wild-type peptide (splenocytes): increased amounts of IFN-gamma

CC[C@H](C)[C@H](NC(=O)[C@H](Cc1ccc(O)cc1)NC(=O)[C@H](Cc1ccccc1)NC(=O)[C@@H](NC(=O)[C@H](CCCCN)NC(=O)[C@H](CCC(=O)O)NC(=O)[C@H](CO)NC(=O)[C@@H](NC(=O)[C@@H](N)Cc1ccccc1)C(C)C)[C@@H](C)CC)C(=O)O [SSX2 41-49 (K41F, A42V, V49I)]
Relative affinity (1/RA) (HLA-A*0201): 1.6 | Cross-reactivity and fct avidity (native to analogs)* [2]: 0.3 | cytotoxicity against human tumor cells expressing natural SSX-2 41-49 epitope (624.38 melanoma cells): increased cytotoxicity

SLLMWITQC [Nyeso-1 157-165, reference compound]
in vivo cytotoxicity (% specific lysis), in words [1]: variable cytotoxicity

YASEKIFYV-OH [SSX2 41-49 (K41Y)]
Relative affinity (1/RA) (HLA-A*0201): 1.7 | Cross-reactivity and fct avidity (native to analogs)* [2]: 3 | in vivo cytotoxicity (% specific lysis), in words [3]: increased activity

S157Y L158I C165V: NY-ESO-1 157-165 analog with S157Y, L158I and C165V substitutions (YILMWITQV; UniProt P78358 157-165, looked up, variant S157Y L158I C165V)
activity in cross-reactivity assay (NY-ESO-1 157-165 specific T cells), in words [4]: increased activity relative to the wild-type peptide

L158V: NY-ESO-1 157-165 analog with L158V substitution (SVLMWITQC; UniProt P78358 157-165, looked up, variant L158V) [Peptide L158V]
activity in cross-reactivity assay (NY-ESO-1 157-165 specific T cells), in words [4]: partial retention of activity

FASEKIFYV [SSX2 41-49 (K41F)]
Relative affinity (1/RA) (HLA-A*0201): 1.5 | Cross-reactivity and fct avidity (native to analogs)* [2]: 0.3 | in vivo cytotoxicity (% specific lysis), in words [3]: increased activity

S157K L158V C165V: NY-ESO-1 157-165 analog with S157K, L158V and C165V substitutions (KVLMWITQV; UniProt P78358 157-165, looked up, variant S157K L158V C165V)
in vivo cytotoxicity (% specific lysis), in words [1]: effect in the same range with wild-type peptide

S157F L158V C165V: NY-ESO-1 157-165 analog with S157F, L158V and C165V substitutions (FVLMWITQV; UniProt P78358 157-165, looked up, variant S157F L158V C165V)
IFN-gamma production upon ex vivo re-stimulation with wild-type peptide (splenocytes): increased amounts of IFN-gamma

GLWSIPVHPI [Peptide P290W]
priming of immune response against native PSMA288-297 (IFN-γ ELISPOT), in words [5]: increased priming

{Abu}LPSIPVHPI (XLPSIPVHPI; Abu at position 288; T cell peptide epitope analog) [Peptide G288Abu, PSMA288-297 analog with G288Abu substitution]
priming of immune response against native PSMA288-297 (IFN-γ ELISPOT), in words [5]: slightly higher (but significant) activity

NY-ESO-1157-166: 10-mer of the wild-type sequence NY-ESO-1 157-166 (SLLMWITQCF; UniProt P78358 157-166, looked up, fragment) [reference compound]
activity in cross-reactivity assay (NY-ESO-1 157-165 specific T cells), in words [4]: no immunological activity

FVSEKIFYV [SSX2 41-49 (K41F, A42V)]
Relative affinity (1/RA) (HLA-A*0201 on T2 cells [6]): 3.1 1/RA

WVSEKIFYV [SSX2 41-49 (K41W, A42V)]
Relative affinity (1/RA) (HLA-A*0201 on T2 cells [6]): 3 1/RA

FISEKIFYV [SSX2 41-49 (K41F, A42I)]
Relative affinity (1/RA) (HLA-A*0201 on T2 cells [6]): 2.7 1/RA

WMSEKIFYV [SSX2 41-49 (K41W, A42M)]
Relative affinity (1/RA) (HLA-A*0201 on T2 cells [6]): 2.9 1/RA

YMSEKIFYV [SSX2 41-49 (K41Y, A42M)]
Relative affinity (1/RA) (HLA-A*0201 on T2 cells [6]): 0.6 1/RA

KISEKIFYV [SSX2 41-49 (A42I)]
Relative affinity (1/RA) (HLA-A*0201 on T2 cells [7]): 1.7 1/RA

WLSEKIFYV [SSX2 41-49 (K41W, A42L)]
Relative affinity (1/RA) (HLA-A*0201 on T2 cells [6]): 3.3 1/RA

FASEKIFYV [SSX2 41-49 (K41F)]
Relative affinity (1/RA) (HLA-A*0201 on T2 cells [8]): 1.5 1/RA

KMSEKIFYV [SSX2 41-49 (A42M)]
Relative affinity (1/RA) (HLA-A*0201 on T2 cells [7]): 1.7 1/RA

YASEKIFYV [SSX2 41-49 (K41Y)]
Relative affinity (1/RA) (HLA-A*0201 on T2 cells [8]): 1.7 1/RA

YLSEKIFYV [SSX2 41-49 (K41Y, A42L)]
Relative affinity (1/RA) (HLA-A*0201 on T2 cells [6]): 1.2 1/RA

FLLQHLIG[Nle] (the second is probably S425T L433Nle) [PRAME425-433 S425F L433Nle analog]
fold reduction of ED50 against the native peptide [9]: > 4 fold

FMLQHLIG[Nle] [PRAME425-433 analog with Phe at P1, Met at P2 and Nle at PΩ]
binding result [9]: binds

TMLQHLIG[Nle] [PRAME425-433 S425T L426M L433Nle analog]
binding result [9]: binds

[Tyr(Me)]ASEKIFYV [SSX2 41-49 (K41(O-methyl Tyr))]
Relative affinity (1/RA) (HLA-A*0201 on T2 cells [8]): 0.8 1/RA

[Orn]LLQHLIGL [PRAME425-433 analog with Orn at P1]
fold difference of affinity (ED50) against the native peptide [9]: ≤ 3 fold

B1: SSX2 41-49 (K41(Phe-4NO2)) (peptide)
peptide: [Phe(4-NO2)]ASEKIFYV
notes: also called para-nitrophenylalanine analog
Relative affinity (1/RA) (HLA-A*0201 on T2 cells [8]): 1.1 1/RA

XLLQHLIGL (P1 = Hse (homoserine)) [PRAME425-433 analog with Hse at P1]
fold difference of affinity (ED50) against the native peptide [9]: ≤ 3 fold

SILQHLIGL [PRAME425-433 analog with Ile at P2]
fold reduction of affinity (ED50) against the native peptide [9]: ≤ 3 fold

TLLQHLIGL [PRAME425-433 analog with Thr at P1]
fold difference of affinity (ED50) against the native peptide [9]: ≤ 3 fold

YLLQHLIGL [PRAME425-433 analog with Tyr at P1]
fold difference of affinity (ED50) against the native peptide [9]: ≤ 3 fold

FLLQHLIGL (also called Phe P1 analog; S425F) [PRAME425-433 analog with Phe at P1]
fold difference of affinity (ED50) against the native peptide [9]: ≤ 3 fold

[Bta]ASEKIFYV [SSX2 41-49 (K41(b-(3-benzothienyl)Ala))]
Relative affinity (1/RA) (HLA-A*0201 on T2 cells [8]): 0.6 1/RA

[Phg]ASEKIFYV [SSX2 41-49 (K41(Phg))]
Relative affinity (1/RA) (HLA-A*0201 on T2 cells [8]): 2.5 1/RA
